Key:
Streptavidin-PE = Streptavidin-PE (Streptomyces avidinii, UniProt P22629); test: yeast
TrkB [1] = target: T1, TrkB (human, UniProt Q16620); test: yeast
TrkB [2] = target: T1, TrkB; test: yeast; remark: listed apart in the source
GAPDH = GAPDH (human, UniProt P04406); test: yeast
TrkC/Fc = TrkC/Fc (human, UniProt Q16288); test: yeast
TrkB [3] = target: T1, TrkB; test: FACS, soluble GFAb on TrkB-loaded beads
TrkB [4] = target: T1, TrkB; test: yeast; remark: listed apart in the source
TrkB [5] = target: T1, TrkB; test: competition, solution phase
TrkA/Fc = target: T2, TrkA/Fc (human, UniProt P04629); test: yeast
T2 chain: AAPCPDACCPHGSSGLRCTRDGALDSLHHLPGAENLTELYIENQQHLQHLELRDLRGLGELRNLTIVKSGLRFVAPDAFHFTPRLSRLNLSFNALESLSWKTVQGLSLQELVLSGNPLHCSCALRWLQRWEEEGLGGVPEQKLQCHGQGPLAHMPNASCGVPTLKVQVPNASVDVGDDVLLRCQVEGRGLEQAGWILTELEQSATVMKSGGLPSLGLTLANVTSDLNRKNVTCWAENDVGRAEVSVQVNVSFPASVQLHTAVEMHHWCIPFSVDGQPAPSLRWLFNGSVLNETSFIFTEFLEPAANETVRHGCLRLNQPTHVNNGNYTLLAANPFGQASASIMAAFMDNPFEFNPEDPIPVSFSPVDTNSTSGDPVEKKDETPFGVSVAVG

Chain of GAPDH (P04406 2-335): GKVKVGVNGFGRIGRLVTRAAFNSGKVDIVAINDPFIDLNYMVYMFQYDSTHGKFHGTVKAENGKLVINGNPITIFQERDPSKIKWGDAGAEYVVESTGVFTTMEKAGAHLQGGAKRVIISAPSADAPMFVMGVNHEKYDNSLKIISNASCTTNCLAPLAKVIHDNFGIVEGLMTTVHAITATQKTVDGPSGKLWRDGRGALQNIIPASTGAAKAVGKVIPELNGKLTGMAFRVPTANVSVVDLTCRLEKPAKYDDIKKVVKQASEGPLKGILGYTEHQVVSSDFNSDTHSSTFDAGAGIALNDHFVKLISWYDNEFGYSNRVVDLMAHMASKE
T1 sequence (Q16620 32-430): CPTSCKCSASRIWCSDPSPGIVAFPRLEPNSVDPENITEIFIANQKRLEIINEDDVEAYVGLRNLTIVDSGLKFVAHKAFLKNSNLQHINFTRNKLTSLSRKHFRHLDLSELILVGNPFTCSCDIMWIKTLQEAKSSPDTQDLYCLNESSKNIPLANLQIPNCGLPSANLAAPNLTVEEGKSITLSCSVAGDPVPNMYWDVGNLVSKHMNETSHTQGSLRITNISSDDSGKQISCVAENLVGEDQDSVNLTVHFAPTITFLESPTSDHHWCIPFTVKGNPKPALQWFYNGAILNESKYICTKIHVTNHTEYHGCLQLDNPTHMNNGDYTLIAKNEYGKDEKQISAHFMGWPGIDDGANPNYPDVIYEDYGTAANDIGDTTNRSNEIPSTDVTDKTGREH
Chain of Streptavidin-PE (P22629 37-163): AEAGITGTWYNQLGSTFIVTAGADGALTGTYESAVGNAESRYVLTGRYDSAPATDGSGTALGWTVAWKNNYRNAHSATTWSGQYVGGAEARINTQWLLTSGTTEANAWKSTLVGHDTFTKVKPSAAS
Chain of TrkC/Fc (Q16288 32-429): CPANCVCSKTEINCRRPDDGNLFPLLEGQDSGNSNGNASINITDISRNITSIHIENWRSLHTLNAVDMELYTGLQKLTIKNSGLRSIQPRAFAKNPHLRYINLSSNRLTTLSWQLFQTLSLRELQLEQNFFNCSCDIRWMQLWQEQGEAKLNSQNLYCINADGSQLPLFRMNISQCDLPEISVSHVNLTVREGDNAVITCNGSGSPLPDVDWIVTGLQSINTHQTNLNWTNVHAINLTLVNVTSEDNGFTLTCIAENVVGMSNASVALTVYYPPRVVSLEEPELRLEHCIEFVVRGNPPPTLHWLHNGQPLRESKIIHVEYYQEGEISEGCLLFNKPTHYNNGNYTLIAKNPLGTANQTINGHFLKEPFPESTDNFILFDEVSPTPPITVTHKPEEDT

B1: GFAb 2.7 (designed binder)
chain 1: not shown
chain 2: VFSSLRYHV
chain 3: LRMDDTNP
modifications: conjugate with phycoerythrin
Streptavidin-PE
  Kd: 140 nM

B2: T3 102-103 loop only (designed binder)
chain 1: not shown
chain 2: VINPFTVRS
chain 3: SRERDYRLDYTR
TrkB [1]
  Kd: 19 nM

B3: 20-5-8 scaffold (designed binder)
chain 1: not shown
chain 2: LKQHFWSTPRTTS
chain 3: SRERDYRLDYTR
TrkB [2]
  binding result: no binding

B4: GFAb G7 (designed binder)
chain 1: not shown
chain 2: NVIYPFLYA
chain 3: RVTKTKHK
GAPDH
  Kd: > 500 nM

B5: GFAb G6 (designed binder)
chain 1: not shown
chain 2: RVSRFLLTT
chain 3: KSRIISSQ
GAPDH
  Kd: 18 nM

B6: GFAb G4 (designed binder)
chain 1: not shown
chain 2: RGVSKSFLL
chain 3: QGITKGYK
GAPDH
  Kd: > 500 nM

B7: GFAb 2.17 (designed binder)
chain 1: not shown
chain 2: KARMRLFLM
chain 3: EYGDTLLS
modifications: conjugate with phycoerythrin
Streptavidin-PE
  Kd: 110 nM

B8: GFAb G8 (designed binder)
chain 1: not shown
chain 2: SHCLFRKCY
chain 3: ARSIRMKV
GAPDH
  Kd: > 500 nM

B9: T3 172-173 loop only (designed binder)
chain 1: not shown
chain 2: LKQHFWSTPRTTS
chain 3: NAWVVHRR
TrkB [1]
  Kd: 300 nM

B10: GFAb T3 (designed binder)
chain 1: not shown
chain 2: VINPFTVRS
chain 3: NAWVVHRR
TrkC/Fc
  binding result: no binding
TrkB [3]
  Kd: 34 nM
TrkB [4]
  Kd: 3.2 nM
TrkB [1]
  Kd: 2 nM
TrkB [5]
  Kd: ~10 nM
TrkA/Fc
  binding result: no binding

B11: GFAb 1.3 (designed binder)
chain 1: not shown
chain 2: AISRSFFST
chain 3: IRNLKYTN
modifications: conjugate with phycoerythrin
Streptavidin-PE
  Kd: 70 nM

Source: patent US8754193 (dated 2014)
